Laboratory results published in US20180057553A1, “CONJUGATE AND USE THEREOF” (The University of Tokyo, priority 2015, published 2018).
Changes are numbered by the printed parent chain. Names may count otherwise.

B1: mouse intelectin-1: produced as a monomer; 51 amino acid residues different from human intelectin-1; SEQ ID NO: 7 (protein, listed as Mus musculus)
chain: MTQLGFLLFIMVATRGCSAAEENLDTNRWGNSFFSSLPRSCKEIKQEHTKAQDGLYFLRTKNGVIYQTFCDMTTAGGGWTLVASVHENNMRGKCTVGDRWSSQQGNRADYPEGDGNWANYNTFGSAEAATSDDYKNPGYFDIQAENLGIWHVPNKSPLHNWRKSSLLRYRTFTGFLQHLGHNLFGLYKKYPVKYGEGKCWTDNGPALPVVYDFGDARKTASYYSPSGQREFTAGYVQFRVFNNERAASALCAGVRVTGCNTEHHCIGGGGFFPEGNPVQCGDFASFDWDGYGTHNGYSSSRKITEAAVLLFYR
modifications: mouse intelectin-1
B2: intelectin: a kind of lectin; amino acid sequence of human intelectin-1 is SEQ ID NO: 1; wild type forms a trimer (protein, listed as Homo sapiens)
chain: MNQLSFLLFLIATTRGWSTDEANTYFKEWTCSSSPSLPRSCKEIKDECPSAFDGLYFLRTENGVIYQTFCDMTSGGGGWTLVASVHENDMRGKCTVGDRWSSQQGSKADYPEGDGNWANYNTFGSAEAATSDDYKNPGYYDIQAKDLGIWHVPNKSPMQHWRNSSLLRYRTDTGFLQTLGHNLFGIYQKYPVKYGEGKCWTDNGPVIPVVYDFGDAQKTASYYSPYGQREFTAGFVQFRVFNNERAANALCAGMRVTGCNTEHHCIGGGGYFPEASPQQCGDFSGFDWSGYGTHVGYSSSREITEAAVLLFYR
modifications: human intelectin-1
notes: a kind of lectin; wild type forms a trimer
B3: C31, 48S mutant of human intelectin-1: cysteine residues at position 31 and 48 substituted with serine; produced as a monomer; SEQ ID NO: 9 (protein, listed as Homo sapiens)
chain: B2 chain with C31S, C48S
modifications: human intelectin-1 C31S, C48S variant

Columns and labels:
[1] = Binding of intelectin to beads having a diol group (SDS-PAGE, Examples 1 and 10); details: 18 hours at 25 deg C; eluted with 15% glycerol; compared with polystyrene or hydroxy beads
Description: Beads having a diol group on the surface and beads not having a diol group on the surface were prepared. Beads obtained by conjugating 3-amino-1-propanediol bound to the surface of polystyrene beads via an amino group (diol beads), and beads obtained by alkaline hydrolyzing the epoxy group of Sepharose beads with 1,4-bis(2,3-epoxypropyl)butane introduced (epoxy-activated Sepharose 6B (GE Healthcare Biosciences)) (diol Sepharose beads) were used as the beads having a diol group on the surface. Polystyrene beads and beads obtained by conjugating 3-amino-1-propanol to polystyrene beads (hydroxy beads) were used as the beads not having a diol group on the surface.
Each kind of beads were added to 500 microliters of a medium containing intelectin or a medium not containing intelectin, and were stirred for 18 hours at 25 deg C. Recombinant human intelectin-1 was used as intelectin. Subsequently, the beads were collected by centrifugation and washed once with buffer, and the samples was eluted with buffer containing 15% glycerol. Samples were separated by SDS polyacrylamide gel electrophoresis (SDS-PAGE), and proteins were stained using Coomassie Brilliant Blue.
Beads having a diol group on the surface and beads not having a diol group on the surface were prepared. Diol beads, diol Sepharose brads, and hydroxy beads, that were used in Example 1, were used as the beads.
First, beads were added to 5 mL of a medium containing recombinant mouse intelectin-1 or 1 mL of a medium containing C31, 48S mutant of human intelectin-1, and the samples were stirred for 18 hours at 25 deg C.
Subsequently, the beads were collected by centrifugation and washed once with buffer, and the samples were eluted with buffer containing 15% glycerol. The samples were then separated by SDS-polyacrylamide gel electrophoresis (SDS-PAGE), and proteins were stained with Coomassie Brilliant Blue.

[2] = Adsorption of intelectin in human serum to diol modified silica gel column (Example 14); assay type: binding
Description: 40 microliters of 50% fresh human serum diluted with 0.1% Tween 20-150 mM NaCl—50 mM phosphate buffer (pH 7.3) added with or not added with 10 mM EDTA was added to a gel filtration chromatography column (TSKgel G3000 SWXL Tosoh Corporation) utilizing diol-modified silica gel as the carrier, and gel filtration was performed using 0.1% Tween 20—150 mM NaCl—50 mM phosphate buffer (pH 7.3) as solvent. Subsequently, the intelectin concentration in the elution fraction was measured using ELISA.

Molecule | binding to beads having a diol group (SDS-PAGE) [1] | binding of serum intelectin to the column ([2]; human serum added with 10 mM EDTA) | binding of serum intelectin to the column ([2]; human serum not added with EDTA)
B1 | specifically bind to diol beads and diol Sepharose beads | – | –
B2 | selectively bind to diol beads and diol Sepharose beads | did not bind to the column | adsorbed to the column
B3 | specifically bind to diol beads and diol Sepharose beads | – | –
